Numbering of substitutions follows the chain as printed. Numbers in names are those of the source.
T1: human TIGIT stably expressed on Jurkat/IL-2 reporter cells (Jurkat/TIGIT cells) (human, UniProt Q495A1 22-244)
T1 sequence (looked up): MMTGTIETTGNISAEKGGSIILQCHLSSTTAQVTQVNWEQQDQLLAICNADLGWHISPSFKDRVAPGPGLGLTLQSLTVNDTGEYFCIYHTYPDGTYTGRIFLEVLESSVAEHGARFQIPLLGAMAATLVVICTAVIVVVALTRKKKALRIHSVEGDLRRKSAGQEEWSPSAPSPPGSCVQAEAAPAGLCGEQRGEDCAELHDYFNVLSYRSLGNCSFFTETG

B1: variant PD-L1 ECD-Fc E27D, N45D, T183A, I188V (Fc fusion, not shown: a dimerising Fc or GST)
chain: FTVTVPKDLYVVEYGSNMTIECKFPVDKQLDLAALIVYWEMEDKDIIQFVHGEEDLKVQHSSYRQRARLLKDQLSLGNAALQITDVKLQDAGVYRCMISYGGADYKRITVKVNAPYNKINQRILVVDPVTSEHELTCQAEGYPKAEVIWTSSDHQVLSGKTTTTNSKREEKLFNVTSTLRINATTNEVFYCTFRRLDPEENHTAELVIPELPLAHPPNER
B2: variant PD-L1 ECD-Fc M41K, D43G, N45D, R64S, S99G (Fc fusion, not shown: a dimerising Fc or GST)
chain: B1 chain with D27E, M41K, D43G, R64S, S99G, A183T, V188I
B3: variant PD-L1 ECD-Fc N45D, N113Y, R195S (Fc fusion, not shown: a dimerising Fc or GST)
chain: B1 chain with D27E, N113Y, A183T, V188I, R195S
B4: variant PD-L1 ECD-Fc M41K, D43G, N45D, R64S, R195G (Fc fusion, not shown: a dimerising Fc or GST)
chain: B1 chain with D27E, M41K, D43G, R64S, A183T, V188I, R195G
B5: variant PD-L1 ECD-Fc N45D, Q89R, I98V (Fc fusion, not shown: a dimerising Fc or GST)
chain: B1 chain with D27E, Q89R, I98V, A183T, V188I
B6: variant PD-L1 ECD-Fc N45D, K111T, R195G (Fc fusion, not shown: a dimerising Fc or GST)
chain: B1 chain with D27E, K111T, A183T, V188I, R195G
B7: variant PD-L1 ECD-Fc N45D, N165Y, E170G (Fc fusion, not shown: a dimerising Fc or GST)
chain: B1 chain with D27E, N165Y, E170G, A183T, V188I
B8: variant PD-L1 ECD-Fc N45D, T163I, K167R, R195G (Fc fusion, not shown: a dimerising Fc or GST)
chain: B1 chain with D27E, T163I, K167R, A183T, V188I, R195G
B9: variant PD-L1 ECD-Fc K28E, N45D, W149R, S158G, P198T (Fc fusion, not shown: a dimerising Fc or GST)
chain: B1 chain with D27E, K28E, W149R, S158G, A183T, V188I, P198T
B10: variant PD-L1 ECD-Fc K23N, N45D, S75P, N120S (Fc fusion, not shown: a dimerising Fc or GST)
chain: B1 chain with K23N, D27E, S75P, N120S, A183T, V188I
B11: variant PD-L1 ECD-Fc N45D, S99G, C137R, V207A (Fc fusion, not shown: a dimerising Fc or GST)
chain: B1 chain with D27E, S99G, C137R, A183T, V188I, V207A
B12: variant PD-L1 ECD-Fc N45D, E134G, L213P (Fc fusion, not shown: a dimerising Fc or GST)
chain: B1 chain with D27E, E134G, A183T, V188I, L213P
B13: variant PD-L1 ECD-Fc N45D, T183A, T192S, R194G (Fc fusion, not shown: a dimerising Fc or GST)
chain: B1 chain with D27E, V188I, T192S, R194G
B14: variant PD-L1 ECD-Fc N45D, S75P, P198S (Fc fusion, not shown: a dimerising Fc or GST)
chain: B1 chain with D27E, S75P, A183T, V188I, P198S
B15: variant PD-L1 ECD-Fc M41K, D43G, K44E, N45D, R195G, N201D (Fc fusion, not shown: a dimerising Fc or GST)
chain: B1 chain with D27E, M41K, D43G, K44E, A183T, V188I, R195G, N201D
B16: variant PD-L1 ECD-Fc N45D, V50A, I119T, K144E (Fc fusion, not shown: a dimerising Fc or GST)
chain: B1 chain with D27E, V50A, I119T, K144E, A183T, V188I
B17: variant PD-L1 ECD-Fc N45D, S131F, P198S (Fc fusion, not shown: a dimerising Fc or GST)
chain: B1 chain with D27E, S131F, A183T, V188I, P198S
B18: variant PD-L1 ECD-Fc N45D, G102D, R194W, R195G (Fc fusion, not shown: a dimerising Fc or GST)
chain: B1 chain with D27E, G102D, A183T, V188I, R194W, R195G
B19: variant PD-L1 ECD-Fc N45D, V50A, L124S, K144E, L179P, R195G (Fc fusion, not shown: a dimerising Fc or GST)
chain: B1 chain with D27E, V50A, L124S, K144E, L179P, A183T, V188I, R195G
B20: variant PD-L1 ECD-Fc K28R, N45D, V129D, T163N, R195T (Fc fusion, not shown: a dimerising Fc or GST)
chain: B1 chain with D27E, K28R, V129D, T163N, A183T, V188I, R195T
B21: variant PD-L1 ECD-Fc N45D, G52V, Q121L, P198S (Fc fusion, not shown: a dimerising Fc or GST)
chain: B1 chain with D27E, G52V, Q121L, A183T, V188I, P198S
B22: variant PD-L1 ECD-Fc N45D, I148V, R195G, N201D (Fc fusion, not shown: a dimerising Fc or GST)
chain: B1 chain with D27E, I148V, A183T, V188I, R195G, N201D
B23: variant PD-L1 ECD-Fc I98T, F173Y, L196S (Fc fusion, not shown: a dimerising Fc or GST)
chain: B1 chain with D27E, D45N, I98T, F173Y, A183T, V188I, L196S
B24: variant PD-L1 ECD-Fc N45D, K111T, T183A, I188V (Fc fusion, not shown: a dimerising Fc or GST)
chain: B1 chain with D27E, K111T
B25: variant PD-L1 ECD-Fc N45D, V50A, R195T (Fc fusion, not shown: a dimerising Fc or GST)
chain: B1 chain with D27E, V50A, A183T, V188I, R195T
B26: variant PD-L1 ECD-Fc K23N, N45D, Q73R, T163I (Fc fusion, not shown: a dimerising Fc or GST)
chain: B1 chain with K23N, D27E, Q73R, T163I, A183T, V188I
B27: variant PD-L1 ECD-Fc N45D, I148V, R195G (Fc fusion, not shown: a dimerising Fc or GST)
chain: B1 chain with D27E, I148V, A183T, V188I, R195G
B28: variant PD-L1 ECD-Fc V11E, N45D, T130A, P198T (Fc fusion, not shown: a dimerising Fc or GST)
chain: B1 chain with V11E, D27E, T130A, A183T, V188I, P198T
B29: variant PD-L1 ECD-Fc N45D, V50A, I148V, R195G, N201D (Fc fusion, not shown: a dimerising Fc or GST)
chain: B1 chain with D27E, V50A, I148V, A183T, V188I, R195G, N201D
B30: variant PD-L1 ECD-Fc N45D, F173I, S177C (Fc fusion, not shown: a dimerising Fc or GST)
chain: B1 chain with D27E, F173I, S177C, A183T, V188I
B31: variant PD-L1 ECD-Fc N45D, R68L, F173L, D197G, P198S (Fc fusion, not shown: a dimerising Fc or GST)
chain: B1 chain with D27E, R68L, F173L, A183T, V188I, D197G, P198S
B32: PD-L1/CD155 Stack 2: (PD-L1 IgV) (G4S)2 Fc(G4S)3 (CD155 IgV) (Fc fusion)
chain: FTVTVPKDLYVVEYGSNMTIECKFPVEKQLDLAALIVYWEMEGKDIIQFVHGEEDQKAQHSSYRQRARLLKDQLSLGNAALQITDVKLQDAGVYRCMISYGGGADYKRITVKVNAGGGGSGGGGSEPKSSDKTHTCPPCPAPEAEGAPSVFLFPPKPKDTLMISRTPEVTCVVVDVSHEDPEVKFNWYVDGVEVHNAKTKPREEQYNSTYRVVSVLTVLHQDWLNGKEYKCKVSNKALPAPIEKTISKAKGQPREPQVYTLPPSRDELTKNQVSLTCLVKGFYPSDIAVEWESNGQPENNYKTTPPVLDSDGSFFLYSKLTVDKSRWQQGNVFSCSVMHEALHNHYTQKSLSLSPGKGGGGSGGGGSGGGGSWPPPGTGDVVVQAPTQVSGFLGDSVTLPCYLQVPNMEVTHVSQLTWARHGESGSMAVFHQTQGPWYAESKRLEFVAARLGAELRNASLRMFGLRVEDEGNYTCQFVTFPQRSRSVDIWLRVL
B33: PD-L1/CD155 Stack 1: (CD155 IgV) (G4S)2 Fc (G4S)3 (PD-L1 IgV) (Fc fusion)
chain: WPPPGTGDVVVQAPTQVSGFLGDSVTLPCYLQVPNMEVTHVSQLTWARHGESGSMAVFHQTQGPWYAESKRLEFVAARLGAELRNASLRMFGLRVEDEGNYTCQFVTFPQRSRSVDIWLRVLGGGGSGGGGSEPKSSDKTHTCPPCPAPEAEGAPSVFLFPPKPKDTLMISRTPEVTCVVVDVSHEDPEVKFNWYVDGVEVHNAKTKPREEQYNSTYRVVSVLTVLHQDWLNGKEYKCKVSNKALPAPIEKTISKAKGQPREPQVYTLPPSRDELTKNQVSLTCLVKGFYPSDIAVEWESNGQPENNYKTTPPVLDSDGSFFLYSKLTVDKSRWQQGNVFSCSVMHEALHNHYTQKSLSLSPGKGGGGSGGGGSGGGGSFTVTVPKDLYVVEYGSNMTIECKFPVEKQLDLAALIVYWEMEGKDIIQFVHGEEDQKAQHSSYRQRARLLKDQLSLGNAALQITDVKLQDAGVYRCMISYGGGADYKRITVKVNA

Assays:
[1] = target: T2, human PD-1 stably expressed on Jurkat/IL-2 reporter cells (Jurkat/PD-1 cells) (human, UniProt Q15116 25-288); experiment: flow cytometry, Jurkat/PD-1 cells
T2 sequence (Q15116 25-288): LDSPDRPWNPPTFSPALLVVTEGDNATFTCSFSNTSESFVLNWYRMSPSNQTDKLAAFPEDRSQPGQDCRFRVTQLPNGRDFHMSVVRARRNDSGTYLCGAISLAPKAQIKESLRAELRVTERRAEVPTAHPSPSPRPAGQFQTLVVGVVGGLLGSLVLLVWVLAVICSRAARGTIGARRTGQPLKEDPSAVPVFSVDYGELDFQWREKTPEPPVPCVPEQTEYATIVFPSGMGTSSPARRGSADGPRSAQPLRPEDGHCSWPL

[2] = target: T2, human PD-1 stably expressed on …; experiment: cell-based or functional assay
[3] = target: T1, human TIGIT stably expressed on …; experiment: cell-based or functional assay

| Binder | Fold Increase over WT PD-L1 ECD-Fc [1] [fold] | MFI at 20 nM conc. [1] [MFI] | other results |
| --- | --- | --- | --- |
| B1 | 26.6 | 133000 |  |
| B2 | 26.9 | 135000 |  |
| B3 | 22.4 | 112000 |  |
| B4 | 27.4 | 137000 |  |
| B5 | 18.1 | 90500 |  |
| B6 | 13.1 | 65700 |  |
| B7 | 17.8 | 89000 |  |
| B8 | 26.7 | 134000 |  |
| B9 | 0.1 | 691 |  |
| B10 | 26.4 | 132000 |  |
| B11 | 0.2 | 834 |  |
| B12 | 0.5 | 2260 |  |
| B13 | 0.3 | 1350 |  |
| B14 | 25.9 | 130000 |  |
| B15 | 28.9 | 145000 |  |
| B16 | 6.8 | 34200 |  |
| B17 | 23.2 | 116000 |  |

| Binder | Fold Increase over WT PD-L1 ECD-Fc [1] [fold] | MFI at 20 nM conc. [1] [MFI] | other results |
| --- | --- | --- | --- |
| B18 | 2.7 | 13400 |  |
| B19 | 3.6 | 18200 |  |
| B20 | 27.4 | 137000 |  |
| B21 | 0.1 | 296 |  |
| B22 | 26.1 | 131000 |  |
| B23 | 0 | 236 |  |
| B24 | 21.7 | 109000 |  |
| B25 | 28.3 | 142000 |  |
| B26 | 27.8 | 139000 |  |
| B27 | 21.8 | 109000 |  |
| B28 | 27.4 | 137000 |  |
| B29 | 26.2 | 131000 |  |
| B30 | 0.4 | 2200 |  |
| B31 | 11.8 | 59300 |  |
| B32 |  |  | Fold Increase Compared to non-stack variant CD155 IgV-Fc control [2]: 2.8 fold; Fold Increase Compared to non-stack variant PD-L1 IgV-Fc control [2]: 1 fold; Fold Increase Compared to variant PD-L1 IgV-Fc and variant CD155 IgV-Fc [2]: 1.4 fold; RLU [2]: 962 RLU; Fold Increase Compared to non-stack variant CD155 IgV-Fc control [3]: 2.8 fold; Fold Increase Compared to non-stack variant PD-L1 IgV-Fc control [3]: 1 fold; Fold Increase Compared to variant PD-L1 IgV-Fc and variant CD155 IgV-Fc [3]: 1.4 fold; RLU [3]: 962 RLU |
| B33 |  |  | Fold Increase Compared to non-stack variant CD155 IgV-Fc control [2]: 1.7 fold; Fold Increase Compared to non-stack variant PD-L1 IgV-Fc control [2]: 0.6 fold; Fold Increase Compared to variant PD-L1 IgV-Fc and variant CD155 IgV-Fc [2]: 0.8 fold; RLU [2]: 573 RLU; Fold Increase Compared to non-stack variant CD155 IgV-Fc control [3]: 1.7 fold; Fold Increase Compared to non-stack variant PD-L1 IgV-Fc control [3]: 0.6 fold; Fold Increase Compared to variant PD-L1 IgV-Fc and variant CD155 IgV-Fc [3]: 0.8 fold; RLU [3]: 573 RLU |

Source: patent US20260062456A1 (ALPINE IMMUNE SCIENCES, published 2026)
